Measured values taken from publication PMC3791462, “Role of the C-terminal domain in the structure and function of tetrameric sodium channels” (Nature Communications, 2013).
Positions count from the first letter of the chain named. Numbers in names are those of the source.

B1: NavMs-pore+CTD (wild-type pore with full-length C-terminal domain of the NavMs sodium channel from Magnetococcus marinus MC-1) (domain or fragment, UniProt A0L5S6 130-274, looked up)
chain: GVGSVAALLTVVFYIAAVMATNLYGATFPEWFGDLSKSLYTLFQVMTLESWSMGIVRPVMNVHPNAWVFFIPFIMLTTFTVLNLFIGIIVDAMAITKEQEEEAKTGHHQEPISQTLLHLGDRLDRIEKQLAQNNELLQRQQPQKK
notes: Plasmid pET15b; also called unlabelled wild-type construct; wild-type pore+CTD protein; source: E. coli C41(DE3), purified (HisTrap HP, thrombin, second HisTrap HP, size exclusion) in HEGA-10
B2: NavMs-pore+CTD A221C/D250C double mutant, PROXYL spin-labelled (domain or fragment, Magnetococcus marinus MC-1, UniProt A0L5S6 130-274, looked up)
chain: B1 chain with A92C, D121C
modifications: 3-(2-iodoacetamido)-PROXYL nitroxide spin labels on cysteines 221 and 250
notes: source: E. coli C41(DE3), purified (HisTrap HP, thrombin, size exclusion), spin-labelled
B3: NavMs-pore+CTD A221C, PROXYL spin-labelled (domain or fragment, Magnetococcus marinus MC-1, UniProt A0L5S6 130-274, looked up)
chain: B1 chain with A92C
modifications: 3-(2-iodoacetamido)-PROXYL nitroxide spin label on cysteine 221
notes: as for B2
B4: NavMs-pore+CTD A223C, PROXYL spin-labelled (domain or fragment, Magnetococcus marinus MC-1, UniProt A0L5S6 130-274, looked up)
chain: B1 chain with A94C
modifications: 3-(2-iodoacetamido)-PROXYL nitroxide spin label on cysteine 223
notes: as for B2
B5: NavMs-pore+CTD A232C, PROXYL spin-labelled (domain or fragment, Magnetococcus marinus MC-1, UniProt A0L5S6 130-274, looked up)
chain: B1 chain with A103C
modifications: 3-(2-iodoacetamido)-PROXYL nitroxide spin label on cysteine 232
notes: as for B2
B6: NavMs-pore+CTD I241C, PROXYL spin-labelled (domain or fragment, Magnetococcus marinus MC-1, UniProt A0L5S6 130-274, looked up)
chain: B1 chain with I112C
modifications: 3-(2-iodoacetamido)-PROXYL nitroxide spin label on cysteine 241
notes: as for B2
B7: NavMs-pore+CTD D250C, PROXYL spin-labelled (domain or fragment, Magnetococcus marinus MC-1, UniProt A0L5S6 130-274, looked up)
chain: B1 chain with D121C
modifications: 3-(2-iodoacetamido)-PROXYL nitroxide spin label on cysteine 250
notes: as for B2
B8: NavMs-pore+CTD A260C, PROXYL spin-labelled (domain or fragment, Magnetococcus marinus MC-1, UniProt A0L5S6 130-274, looked up)
chain: B1 chain with A131C
modifications: 3-(2-iodoacetamido)-PROXYL nitroxide spin label on cysteine 260
notes: as for B2
B9: NavMs-pore+CTD R268C, PROXYL spin-labelled (domain or fragment, Magnetococcus marinus MC-1, UniProt A0L5S6 130-274, looked up)
chain: B1 chain with R139C
modifications: 3-(2-iodoacetamido)-PROXYL nitroxide spin label on cysteine 268
notes: as for B2
B10: NavMs-pore+CTD K273C, PROXYL spin-labelled (domain or fragment, Magnetococcus marinus MC-1, UniProt A0L5S6 130-274, looked up)
chain: B1 chain with K144C
modifications: 3-(2-iodoacetamido)-PROXYL nitroxide spin label on cysteine 273
notes: as for B2

Molecular target: the molecule itself
Assay: SEC; Superdex 200 10/300 GL, buffer A (10 mM Tris-HCl pH 7.5, 100 mM NaCl, 0.52% HEGA-10); detergent-solubilised protein

Protein | stoichiometry N
B1 | 4
B2 | 4
B3 | 4
B4 | 4
B5 | 4
B6 | 4
B7 | 4
B8 | 4
B9 | 4
B10 | 4
